Biological target: T1, RbsR (Serratia sp. ATCC39006) (UniProt A0A2I5T2K0)
T1 sequence: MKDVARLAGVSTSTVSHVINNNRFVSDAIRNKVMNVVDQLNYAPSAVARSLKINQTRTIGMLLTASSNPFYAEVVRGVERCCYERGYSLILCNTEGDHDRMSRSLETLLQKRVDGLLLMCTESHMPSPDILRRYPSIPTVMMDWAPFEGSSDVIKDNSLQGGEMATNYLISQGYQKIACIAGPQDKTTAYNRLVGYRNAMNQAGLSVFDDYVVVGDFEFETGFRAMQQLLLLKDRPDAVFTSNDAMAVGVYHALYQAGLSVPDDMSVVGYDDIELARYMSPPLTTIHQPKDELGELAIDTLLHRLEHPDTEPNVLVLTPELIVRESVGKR
Assay: EMSA
Settings: complete band shift at 14 nM RbsR (protein:DNA 2.8:1); 10% glycerol, 10 mM Tris pH 8.0, 1 mM DTT, 10 mM KCl, 0.5 mM EDTA, BSA (printed 20 ug m-1), 5 nM probe, 30 min on ice; 7.5% native gel in TGE at 4 C

rbsD upstream probe (LUEGO)
binding: 14 nM

— PMC5601083
